From PMC4134300, “Biochemical Characterization of Two Thermostable Xylanolytic Enzymes Encoded by a Gene Cluster of Caldicellulosiruptor owensensis” (PLoS ONE, 2014)

Substrate: O=[N+]([O-])c1ccc(O[C@@H]2OC[C@@H](O)[C@H](O)[C@H]2O)cc1
Experiment: purified protein
Assay type: biochemical, Caldicellulosiruptor owensensis
Conditions: 50 mM sodium citrate, 150 mM NaCl, pH 5.0, 75 °C, 0.05 to 2.4 mM pNPX

B1: Coxyl A (Caldicellulosiruptor owensensis OL) (protein)
chain: MKIELYPEKTSGKINKFWTKCVGSCHAATALREDWRRQLRKCRQELGFEYLRCHGWLNDDMSVCFRNEDGKLWFSFFNIDTIIDFLLDIGMKPFIELSFMPEALASGTKTVFHYKGNITPPKSYEEWGQLVEELARHLVKRYGKNEVKEWFFEVWNEPNLKDFFWAGTMEEYFELYKHAAFAIKKVDPDLKVGGPASAIDAWIPELKEFCEKNNVPIDFISTHQYPTDLAFSTSSNMEEAMAKAKRGELADRVKKAIEEASPLPVYYTEWNNSPSPRDPYHDIPYDAAFIVKTIIDIVDLPLGCYSYWTFTDIFEECGQSSLPFHGGFGLLNIHGIPKPSYRAFQILDKLNGEKINAEAEDISPTIDFIATKNNNEIVLIISNHNVPLSPIENENILVTVNGLKGCKEISIERIDEYNANPKRKWVEMGSPEYLNKDQIEELIEASKPKKEVVSWRITGDNQLAFELNILPHSVLGVTIKTE
notes: His-tagged in pET-28b(+), E. coli BL21(DE3); homodimer
Km: 1600 ± 100 µM
Vmax: 3930 µmol/min/mg
kcat: 3630 ± 122 s⁻¹
